In patent US20220177587A1, “METHODS AND USES OF VARIANT CD80 FUSION PROTEINS AND RELATED CONSTRUCTS” (Alpine Immune Sciences, Inc., priority 2018, published 2022):

Assays:
CD28 (human) [1] = target: CD28 (human) (UniProt P10747)
PD-L1 (human) [2] = target: PD-L1 (human) (UniProt Q9NZQ7)
Target sequence in this assay (Q9NZQ7 19-290): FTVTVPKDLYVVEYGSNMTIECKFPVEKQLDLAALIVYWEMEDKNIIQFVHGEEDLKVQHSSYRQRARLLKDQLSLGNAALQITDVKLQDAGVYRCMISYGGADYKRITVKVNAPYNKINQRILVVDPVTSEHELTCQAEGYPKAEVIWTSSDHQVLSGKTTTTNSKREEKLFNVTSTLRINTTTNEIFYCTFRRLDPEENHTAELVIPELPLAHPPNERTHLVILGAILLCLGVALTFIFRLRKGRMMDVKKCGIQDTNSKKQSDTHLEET

CD28 (human) [3] = target: CD28 (human) (UniProt P10747); remark: listed apart in the source
PD-L1 (human) [4] = target: PD-L1 (human) (UniProt Q9NZQ7); remark: listed apart in the source
Target sequence in this assay (Q9NZQ7 19-290): as above

CD28 (human) [5] = target: CD28 (human) (UniProt P10747); assay: flow cytometry, Jurkat/IL2 reporter cells (endogenous CD28)
human CTLA-4 (human) [6] = target: human CTLA-4 (human) (UniProt P16410); assay: flow cytometry, CHO cells stably expressing CTLA4
Sequence of human CTLA-4 (human) (P16410 36-223): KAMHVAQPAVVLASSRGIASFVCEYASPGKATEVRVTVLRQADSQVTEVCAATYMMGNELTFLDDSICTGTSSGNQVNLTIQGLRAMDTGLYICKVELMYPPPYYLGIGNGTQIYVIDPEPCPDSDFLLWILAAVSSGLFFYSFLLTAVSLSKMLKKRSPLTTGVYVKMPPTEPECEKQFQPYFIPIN

PD-L1 (human) [7] = target: PD-L1 (human) (UniProt Q9NZQ7); assay: flow cytometry, CHO cells stably expressing PD-L1
Target sequence in this assay (Q9NZQ7 19-290): as the sequence (Q9NZQ7 19-290) above

CD28 (human) [8] = target: CD28 (human) (UniProt P10747); assay: flow cytometry, Jurkat cells (CD28)
PD-L1 (human) [9] = target: PD-L1 (human) (UniProt Q9NZQ7); assay: flow cytometry, MFI on PD-L1 cells over MFI on CD28 cells
Target sequence in this assay (Q9NZQ7 19-290): as above

CD28 (human) [10] = target: CD28 (human) (UniProt P10747); remark: listed apart in the source
PD-L1 (human) [11] = target: PD-L1 (human) (UniProt Q9NZQ7); remark: listed apart in the source
Target sequence in this assay (Q9NZQ7 19-290 limits assumed): as the sequence (Q9NZQ7 19-290) above

CD28 (human) [12] = target: CD28 (human) (UniProt P10747); remark: listed apart in the source
PD-L1 (human) [13] = target: PD-L1 (human) (UniProt Q9NZQ7); remark: listed apart in the source
Target sequence in this assay (Q9NZQ7 19-290): as above

human CTLA-4 (human) [14] = target: human CTLA-4 (human) (UniProt P16410); assay: flow cytometry, CHO cells expressing huCTLA4

Substance	Jurkat/IL2 reporter RLU at 50 nM, CHO/OKT3 aAPC without PD-L1 (CD28 (human) [3]) [RLU]	Fold change to WT CD80 (human CTLA-4 (human) [6]) [fold]	MFI at 33.3 nM (human CTLA-4 (human) [6]) [MFI]	Fold change to WT CD80 (PD-L1 (human) [7]) [fold]	MFI at 33.3 nM (PD-L1 (human) [7]) [MFI]	Fold change to WT CD80 (CD28 (human) [8]) [fold]	MFI at 33.3 nM (CD28 (human) [8]) [MFI]	Ratio of PDL1:CD28 (PD-L1 (human) [9])	IL-2 luciferase reporter, fold increase over WT CD80-IgV-Fc at 5.0 nM (CD28 (human) [10]) [fold]	IL-2 luciferase reporter, fold increase over WT CD80-IgV-Fc at 5.0 nM (PD-L1 (human) [11]) [fold]	further results
CD80 E35D IgV-Fc (inert) (Fc fusion)	448										IL-2 release, primary T cells + K562/OKT3/PD-L1, 100 nM (CD28 (human) [1]): 2740; IL-2 release, primary T cells + K562/OKT3/PD-L1, 100 nM (PD-L1 (human) [2]): 2740; Jurkat/IL2 reporter RLU at 50 nM, CHO/OKT3/PD-L1 aAPC (CD28 (human) [3]): 1610 RLU; Jurkat/IL2 reporter RLU at 50 nM, CHO/OKT3/PD-L1 aAPC (PD-L1 (human) [4]): 1610 RLU
variant CD80 IgV-Fc S15P/Q33L/E35D/M47L/L85Q (Fc fusion)											MFI at 33.3 nM (CD28 (human) [5]): 266 MFI
CD80 E23G/A26S/E35D/T62N/A71D/L72V/L85M IgV-Fc (inert) (Fc fusion)	606										IL-2 release, primary T cells + K562/OKT3/PD-L1, 100 nM (CD28 (human) [1]): 102; IL-2 release, primary T cells + K562/OKT3/PD-L1, 100 nM (PD-L1 (human) [2]): 102; Jurkat/IL2 reporter RLU at 50 nM, CHO/OKT3/PD-L1 aAPC (CD28 (human) [3]): 695 RLU; Jurkat/IL2 reporter RLU at 50 nM, CHO/OKT3/PD-L1 aAPC (PD-L1 (human) [4]): 695 RLU
variant CD80 IgV-Fc H18Y/A26E/E35D/M47L/A71G (Fc fusion)		14.2	19400	387	16900	8.6	379	44.6	2.42	2.42	
CD80 E35D/D46V/L85Q IgV-Fc (inert) (Fc fusion)	720										IL-2 release, primary T cells + K562/OKT3/PD-L1, 100 nM (CD28 (human) [1]): 1430; IL-2 release, primary T cells + K562/OKT3/PD-L1, 100 nM (PD-L1 (human) [2]): 1430
CD80 H18Y/A26T/E35D/A71D/L85Q IgV-Fc (inert) (Fc fusion)	926										Jurkat/IL2 reporter RLU at 50 nM, CHO/OKT3/PD-L1 aAPC (CD28 (human) [3]): 1160 RLU; Jurkat/IL2 reporter RLU at 50 nM, CHO/OKT3/PD-L1 aAPC (PD-L1 (human) [4]): 1160 RLU
CD80 A71D/L72V/E95K IgV-Fc (inert) (Fc fusion)	644										Jurkat/IL2 reporter RLU at 50 nM, CHO/OKT3/PD-L1 aAPC (CD28 (human) [3]): 755 RLU; Jurkat/IL2 reporter RLU at 50 nM, CHO/OKT3/PD-L1 aAPC (PD-L1 (human) [4]): 755 RLU
variant CD80 IgV-Fc H18Y/A26E/E35D/M47L/V68M (Fc fusion)		14.7	20000	566	24700	14.3	626	39.4	2.29	2.29	
variant CD80 IgV-Fc H18Y/A26E/V68M/A71G/D90G (Fc fusion)		13.5	18300	639	27900	61.1	2680	10.4	2.5	2.5	
variant CD80 IgV-Fc H18Y/A26E/E35D/V68M/A71G/D90G (Fc fusion)		17.2	23400	658	28700	40	1760	16.3	2.41	2.41	
variant CD80 IgV-Fc H18Y/A26E/E35D/V68M/A71G (Fc fusion)		14.3	19400	630	27500	9	394	69.7	2.46	2.46	
CD80 A26E/E35D/M47L/L85Q IgV-Fc (inert) (Fc fusion)	432										IL-2 release, primary T cells + K562/OKT3/PD-L1, 100 nM (CD28 (human) [1]): 1460; IL-2 release, primary T cells + K562/OKT3/PD-L1, 100 nM (PD-L1 (human) [2]): 1460; Jurkat/IL2 reporter RLU at 50 nM, CHO/OKT3/PD-L1 aAPC (CD28 (human) [3]): 2000 RLU; Jurkat/IL2 reporter RLU at 50 nM, CHO/OKT3/PD-L1 aAPC (PD-L1 (human) [4]): 2000 RLU
CD80 E35D/M47I IgV-Fc (effector) (Fc fusion)											IL-2 release, primary T cells + K562/OKT3 (No PD-L1), 100 nM (CD28 (human) [1]): 27200; Jurkat/IL2 reporter RLU at 50 nM, K562/OKT3/PD-L1 aAPC (CD28 (human) [12]): 5700 RLU; Jurkat/IL2 reporter RLU at 50 nM, K562/OKT3 aAPC without PD-L1 (CD28 (human) [12]): 7140 RLU; Jurkat/IL2 reporter RLU at 50 nM, K562/OKT3/PD-L1 aAPC (PD-L1 (human) [13]): 5700 RLU
variant CD80 IgV-Fc H18Y/A26E/E35D/M47L/D90G (Fc fusion)		14.5	19700	291	12700	31.4	1380	9.2	2.37	2.37	
variant CD80 IgV-Fc A26E/E35D/V68M/A71G/D90G (Fc fusion)		17.1	23300	608	26500	47.9	2100	12.6	2.34	2.34	
variant CD80 IgV-Fc H18Y/A26E/E35D/M47L/V68M/D90G (Fc fusion)		18.3	24900	578	25200	60.9	2680	9.4	2.29	2.29	
CD80 E35D/M47L IgV-Fc (inert) (Fc fusion)	817										IL-2 release, primary T cells + K562/OKT3/PD-L1, 100 nM (CD28 (human) [1]): 7530; IL-2 release, primary T cells + K562/OKT3/PD-L1, 100 nM (PD-L1 (human) [2]): 7530
CD80 E35D/M47I/L70M IgV-Fc (inert) (Fc fusion)	600										IL-2 release, primary T cells + K562/OKT3/PD-L1, 100 nM (CD28 (human) [1]): 8390; IL-2 release, primary T cells + K562/OKT3/PD-L1, 100 nM (PD-L1 (human) [2]): 8390; Jurkat/IL2 reporter RLU at 50 nM, CHO/OKT3/PD-L1 aAPC (CD28 (human) [3]): 2630 RLU; Jurkat/IL2 reporter RLU at 50 nM, CHO/OKT3/PD-L1 aAPC (PD-L1 (human) [4]): 2630 RLU
CD80 E35D/M47I/L70M IgV-Fc (effector) (Fc fusion)											IL-2 release, primary T cells + K562/OKT3 (No PD-L1), 100 nM (CD28 (human) [1]): 25300; Jurkat/IL2 reporter RLU at 50 nM, K562/OKT3/PD-L1 aAPC (CD28 (human) [12]): 3870 RLU; Jurkat/IL2 reporter RLU at 50 nM, K562/OKT3 aAPC without PD-L1 (CD28 (human) [12]): 5780 RLU; Jurkat/IL2 reporter RLU at 50 nM, K562/OKT3/PD-L1 aAPC (PD-L1 (human) [13]): 3870 RLU
variant CD80 IgV-Fc A26E/E35D/M43I/M47L/L85Q/K86E/R94W (Fc fusion)											MFI at 33.3 nM (CD28 (human) [5]): 314 MFI; MFI at 33.3 nM (human CTLA-4 (human) [14]): 2950 MFI
variant CD80 IgV-Fc Q33R/E35D/D46E/M47I (Fc fusion)											MFI at 33.3 nM (CD28 (human) [5]): 303 MFI; MFI at 33.3 nM (human CTLA-4 (human) [14]): 3560 MFI
variant CD80 IgV-Fc H18Y/A26E/E35D/A71G/D90G (Fc fusion)		-0.1	-100	340	14800	24.5	1080	13.8	2.45	2.45	
variant CD80 IgV-Fc E35D/D46V/M47I/A71G/F92V (Fc fusion)											MFI at 33.3 nM (CD28 (human) [5]): 7540 MFI
variant CD80 IgV-Fc E35D/M47L/A71G/L97Q (Fc fusion)											MFI at 33.3 nM (CD28 (human) [5]): 300 MFI; MFI at 33.3 nM (human CTLA-4 (human) [14]): 226000 MFI
CD80 E35D IgV-Fc (effector) (Fc fusion)											IL-2 release, primary T cells + K562/OKT3 (No PD-L1), 100 nM (CD28 (human) [1]): 8380; Jurkat/IL2 reporter RLU at 50 nM, K562/OKT3/PD-L1 aAPC (CD28 (human) [12]): 2270 RLU; Jurkat/IL2 reporter RLU at 50 nM, K562/OKT3 aAPC without PD-L1 (CD28 (human) [12]): 1200 RLU; Jurkat/IL2 reporter RLU at 50 nM, K562/OKT3/PD-L1 aAPC (PD-L1 (human) [13]): 2270 RLU
CD80 E23G/A26S/E35D/T62N/A71D/L72V/L85M IgV-Fc (effector) (Fc fusion)											IL-2 release, primary T cells + K562/OKT3 (No PD-L1), 100 nM (CD28 (human) [1]): 27000; Jurkat/IL2 reporter RLU at 50 nM, K562/OKT3/PD-L1 aAPC (CD28 (human) [12]): 4140 RLU; Jurkat/IL2 reporter RLU at 50 nM, K562/OKT3 aAPC without PD-L1 (CD28 (human) [12]): 7860 RLU; Jurkat/IL2 reporter RLU at 50 nM, K562/OKT3/PD-L1 aAPC (PD-L1 (human) [13]): 4140 RLU
